This note sets out measurements from patent publication US20190077849A1.

Several values for one entry are separate records, joined by “and”; a condition that tells them apart may be missing. Equal values may be shown once. A value given as a limit tells only on which side of the number the result lay.

Test in all cases: cell-based or functional assay
Test [1] has as its target HIV-1 Env of CNE31.SG3 pseudovirus (clade C) (HIV-1).
The target in test [2] is HIV-1 Env of PVO.04.SG3 pseudovirus (clade B) (HIV-1).
Test [3] addresses HIV-1 Env of KER2008.12.SG3 pseudovirus (clade A) (HIV-1).
The target of test [4] is HIV-1 Env of ZM106.9.SG3 pseudovirus (clade C) (HIV-1).
Test [5] addresses HIV-1 Env of TH966.8.SG3 pseudovirus (clade AE) (HIV-1).
Test [6] deals with HIV-1 Env of 6095.V1.C10.SG3 pseudovirus (clade ACD) (HIV-1).
Test [7] has as its target HIV-1 Env of 6101.10.SG3 pseudovirus (clade B) (HIV-1).
The target in test [8] is HIV-1 Env of ZM215.8.SG3 pseudovirus (clade C) (HIV-1).
Test [9] deals with HIV-1 Env of YU2.DG.SG3 pseudovirus (clade B) (HIV-1) (UniProt P35961).

On to 10E8 antibody, for which the IC50, pseudovirus neutralization in test [1] was 1.19 µg/mL and 0.995 µg/mL; in test [2], 2.09 µg/mL and 0.997 µg/mL; in [3], greater than 50 µg/mL; in [4], greater than 50 µg/mL; in test [5], 0.032 µg/mL and 0.023 µg/mL.
In the case of 10E8v4 VL Y32A (antibody), the IC50, pseudovirus neutralization was greater than 50 µg/mL in test [1]; 0.409 µg/mL in [6]; greater than 50 µg/mL in test [2]; greater than 50 µg/mL in test [7]; 11.7 µg/mL in test [8]; greater than 50 µg/mL in test [9]. The results for the IC50, pseudovirus neutralization in test [3], in test [4] and in test [5] were greater than 50 µg/mL, greater than 50 µg/mL and 3.53 µg/mL, respectively.
Consider 10E8v4 VL Y32D (antibody), for which the IC50, pseudovirus neutralization in [1] was greater than 50 µg/mL; in [6], 1.55 µg/mL; in test [2], greater than 50 µg/mL; in test [7], greater than 50 µg/mL; in [8], greater than 50 µg/mL; in [9], greater than 50 µg/mL. Also, the IC50, pseudovirus neutralization in test [3], in test [4] and in [5] was greater than 50 µg/mL in each case.
Consider 10E8v4 VL Y32E (antibody), for which the IC50, pseudovirus neutralization in test [1] is greater than 50 µg/mL; in [6], 0.215 µg/mL; in test [2], greater than 50 µg/mL; in test [7], greater than 50 µg/mL; in test [8] it was greater than 50 µg/mL; in test [9], greater than 50 µg/mL. In addition, the IC50, pseudovirus neutralization was greater than 50 µg/mL in test [3], greater than 50 µg/mL in test [4] and 19 µg/mL in [5].
As to 10E8v4 VL Y32F (antibody), the IC50, pseudovirus neutralization in test [1] was 3.2 µg/mL; in test [6], 0.017 µg/mL; in test [2] it was 2.25 µg/mL; in test [7], 0.08 µg/mL; in [8], 0.102 µg/mL; in test [9], 2 µg/mL. The figures for the IC50, pseudovirus neutralization in test [3], in test [4] and in test [5] were greater than 50 µg/mL, greater than 50 µg/mL and 0.031 µg/mL, respectively.
Regarding 10E8v4 VL Y32H (antibody), the IC50, pseudovirus neutralization is 29.9 µg/mL in test [1]; 0.032 µg/mL in test [6]; greater than 50 µg/mL in [2]; 7.4 µg/mL in [7]; 1.39 µg/mL in test [8]; 8.76 µg/mL in test [9]. Besides, the IC50, pseudovirus neutralization in [3] was greater than 50 µg/mL; in [4] it was greater than 50 µg/mL; in test [5] it was 0.788 µg/mL.
Regarding 10E8v4 VL Y32I (antibody), the IC50, pseudovirus neutralization was greater than 50 µg/mL in [1]; 1.3 µg/mL in [6]; greater than 50 µg/mL in [2]; greater than 50 µg/mL in test [7]; greater than 50 µg/mL in test [8]; greater than 50 µg/mL in test [9]. Also, the IC50, pseudovirus neutralization in [3] was greater than 50 µg/mL; in test [4] it was greater than 50 µg/mL; in test [5] it was 21.4 µg/mL.
Take 10E8v4 VL Y32K (antibody): the IC50, pseudovirus neutralization in test [1] was greater than 50 µg/mL; in test [6] it was 0.359 µg/mL; in test [2], greater than 50 µg/mL; in [7], greater than 50 µg/mL; in [8], 33 µg/mL; in [9], greater than 50 µg/mL. Moreover, the IC50, pseudovirus neutralization in test [3] was greater than 50 µg/mL; in [4], greater than 50 µg/mL; in test [5], 10.2 µg/mL.
